Results as given in patent publication US6429304 (University of California, dated 2002).

Target: T1, p80 delta 560-690 (S. purpuratus p80 katanin lacking the C-terminal 130 amino acids), in vitro translated … (Strongylocentrotus purpuratus, UniProt O61585 1-559)
T1 construct: The residues kept are derived from the deletion named; also called delta 560-690 derivative of p80; not shown: 37 amino acid N-terminal S-Tag from pCITE-4a+ (Novagen)
T1 sequence: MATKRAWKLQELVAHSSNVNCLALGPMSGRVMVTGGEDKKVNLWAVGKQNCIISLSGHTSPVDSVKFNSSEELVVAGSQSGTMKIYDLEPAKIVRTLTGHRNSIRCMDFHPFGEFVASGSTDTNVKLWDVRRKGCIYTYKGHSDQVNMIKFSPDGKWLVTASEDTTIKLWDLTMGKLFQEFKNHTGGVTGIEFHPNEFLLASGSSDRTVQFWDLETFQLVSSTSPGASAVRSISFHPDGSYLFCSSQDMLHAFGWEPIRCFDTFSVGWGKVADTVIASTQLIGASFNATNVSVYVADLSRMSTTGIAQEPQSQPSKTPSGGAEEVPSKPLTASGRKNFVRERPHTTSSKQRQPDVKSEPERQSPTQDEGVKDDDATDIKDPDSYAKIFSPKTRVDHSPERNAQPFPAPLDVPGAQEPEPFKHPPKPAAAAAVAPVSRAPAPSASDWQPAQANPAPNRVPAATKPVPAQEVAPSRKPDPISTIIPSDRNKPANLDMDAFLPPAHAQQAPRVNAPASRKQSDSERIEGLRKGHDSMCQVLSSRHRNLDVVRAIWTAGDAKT
Experiment: co-translation in rabbit reticulocyte lysate, immunoprecipitation with anti-p60 antibody
Description: In vitro synthesis of proteins directly from plasmid DNAs was accomplished using the Single Tube Protein System 2, T7 (Novagen). […] For immunoprecipitations, lysates were incubated on ice with Pansorbin (Calbiochem)-antibody complexes, washed in NET buffer (50 mM Tris-Cl (pH 7.5), 150 mM NaCl, 0.1% Nonidet P40, 1 mM EDTA (pH 8.0), 0.25% gelatin and 0.02% sodium azide), then resuspended in SDS-PAGE sample buffer. In vitro translation products in both the pellets and supernatants from the immunoprecipitations were resolved by SDS-PAGE, transferred to nitrocellulose, probed with S-protein HRP conjugate (Novagen) and detected by chemiluminescence.

B1: in vitro translated S. purpuratus p60 katanin with 37 amino acid N-terminal S-Tag (enzyme)
chain: MSVDEICENTKMGREYALLGNYETSLVYYQGVLQQIQKLLTSVHEPQRKHQWQTIRQELSQEYEHVKNITKTLNGFKSEPAAPEPAPNHRAAPFSHHQHAAKPAAAEPARDPDVWPPPTPVDHRPSPPYQRAARKDPPRRSEPSKPANRAPGNDRGGRGPSDRRGDARSGGGGRGGARGSDKDKNRGGKSDKDKKAPSGEEGDEKKFDPAGYDKDLVENLERDIVQRNPNVHWADIAGLTEAKRLLEEAVVLPLWMPDYFKGIRRPWKGVLMVGPPGTGKTMLAKAVATECGTTFFNVSSASLTSKYHGESEKLVRLLFEMARFYAPSTIFIDEIDSICSKRGTGSEHEASRRVKSELLIQMDGVSGPSAGEESSKMVMVLAATNFPWDIDEALRRRLEKRIYIPLPEIDGREQLLRINLKEVPLADDIDLKSIAEKMDGYSGADITNVCRDASMMAMRRRIQGLRPEEIRHIPKEELNQPSTPADFLLALQKVSKSVGKEDLVKYMAWMEEFGSV
notes: Made in a rabbit reticulocyte coupled transcription-translation reaction; not shown: 37 amino acid N-terminal S-Tag from pCITE-4a+ (Novagen)
B1: no binding.
